This note sets out measurements from PMC12912276 (Nature cell biology, 2025).

In the assay the target is T1, His-SUMO-C-GB1 (SETD2 region C) (UniProt Q9BYW2 817-1322).
T1 sequence (looked up): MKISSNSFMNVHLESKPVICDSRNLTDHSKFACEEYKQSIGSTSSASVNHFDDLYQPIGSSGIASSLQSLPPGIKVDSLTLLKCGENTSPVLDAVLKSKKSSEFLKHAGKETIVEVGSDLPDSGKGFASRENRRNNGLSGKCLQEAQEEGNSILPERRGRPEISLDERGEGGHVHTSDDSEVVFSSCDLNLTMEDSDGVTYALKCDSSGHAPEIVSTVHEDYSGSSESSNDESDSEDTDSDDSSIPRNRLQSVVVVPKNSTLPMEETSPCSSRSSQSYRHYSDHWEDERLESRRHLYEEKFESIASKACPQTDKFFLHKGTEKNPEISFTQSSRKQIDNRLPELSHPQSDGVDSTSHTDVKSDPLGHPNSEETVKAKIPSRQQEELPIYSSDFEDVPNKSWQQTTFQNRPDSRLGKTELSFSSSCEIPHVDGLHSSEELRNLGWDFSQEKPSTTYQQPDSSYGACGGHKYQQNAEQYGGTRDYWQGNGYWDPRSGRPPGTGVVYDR
Kind of assay: pull-down.

B1: GST-lamin A-CT (387-664 a.a.) (domain or fragment, human, UniProt P02545 387-664, looked up)
chain: LRLSPSPTSQRSRGRASSHSSQTQGGGSVTKKRKLESTESRSSFSQHARTSGRVAVEEVDEEGKFVRLRNKSNEDQSMGNWQIKRQNGDDPLLTYRFPPKFTLKAGQVVTIWAAGAGATHSPPTDLVWKAQNTWGCGNSLRTALINSTGEEVAMRKLVRSVTVVEDDEDEDGDDLLHHHHGSHCSSSGDPAEYNLRSRTVLCGTCGQPADKASASGSGAQVGGPISSGSSASSVTVTRSYRSVGGSGGGSFGDNLVTRSYLLGNSSPRTQSPQNCSIM
Take B1: the binding result is “binds”.
